Results reported in paper PMC4703387, “Identification of the Calmodulin-Binding Domains of Fas Death Receptor” (PLoS ONE, 2016).
Read-outs that look alike come from different tables or passages of the source. Each block holds one substance with its values, some of them ahead of it.

Key:
[1] = target: calmodulin (Homo sapiens) (UniProt P0DP23); conditions: cited from earlier work
[2] = target: calmodulin (Homo sapiens) (UniProt P0DP23); conditions: cited from earlier work; remark: listed apart in the source
[3] = target: calmodulin, calcium-bound (Ca2+/CaM) (UniProt P0DP23); experiment: SEC; Superdex 75 (10/300 GL), 50 mM Tris pH 7.0, 100 mM NaCl, 5 mM CaCl2; samples ~50-150 uM; fractions by SDS-PAGE; calibration with a low molecular weight kit
[4] = target: Fas-Pep1 (FasDD residues 209-239); experiment: ITC; Ca2+/CaM at 450 uM titrated into Fas-Pep1 at 25 uM, 25°C, 50 mM HEPES pH 7.0, 100 mM NaCl, 5 mM CaCl2; single set of identical sites
[5] = target: Fas-Pep2 (FasDD residues 251-288); experiment: ITC; Ca2+/CaM at 195 uM titrated into Fas-Pep2 at 17 uM, 35°C, 50 mM HEPES pH 7.0, 100 mM NaCl, 5 mM CaCl2; single set of identical sites

Substance: Fas death domain death domain (from UniProt P25445)
Kd [1]: 2 µM

Substance: Fas death domain peptide 214-238 (from UniProt P25445)
Kd [2]: 19.5 µM

Second part, the substance after the results:

stoichiometry N [3]: 1
Substance: Fas-Pep1 (FasDD residues 209-239) (peptide)

stoichiometry N [3]: 1
Substance: Fas-Pep2 (FasDD residues 251-288) (peptide)

Kd [4]: 0.3 µM
dH [4]: 2.15 kcal/mol
stoichiometry N [4]: 0.95
Kd [5]: 1.1 µM
dH [5]: -14.2 kcal/mol
stoichiometry N [5]: 0.9
Substance: calmodulin, calcium-bound (Ca2+/CaM) (from UniProt P0DP23 1-149) (natural protein)
